Results: US20240076389A1 (NATIONAL RESEARCH COUNCIL OF CANADA, published 2024)
Residue numbers refer to the chain shown, from its start.

T1: rhTyro-3 (human, UniProt Q06418 41-429)
T1 construct: extracellular domain
T1 sequence (looked up): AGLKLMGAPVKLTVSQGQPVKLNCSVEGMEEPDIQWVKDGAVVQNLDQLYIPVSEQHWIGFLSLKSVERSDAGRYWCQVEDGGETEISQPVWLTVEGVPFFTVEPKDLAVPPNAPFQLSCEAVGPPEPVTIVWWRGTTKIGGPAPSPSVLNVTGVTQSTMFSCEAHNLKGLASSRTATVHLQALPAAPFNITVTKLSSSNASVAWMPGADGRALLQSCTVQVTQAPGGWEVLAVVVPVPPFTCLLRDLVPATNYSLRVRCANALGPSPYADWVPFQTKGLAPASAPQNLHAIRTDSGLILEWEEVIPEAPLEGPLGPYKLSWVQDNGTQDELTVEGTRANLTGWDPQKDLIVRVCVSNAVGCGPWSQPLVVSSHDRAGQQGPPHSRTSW

T2: recombinant human AXL extracellular domain, C-terminally His8-tagged (rhAXL-ECD) (human, UniProt P30530 26-451)
T2 construct: Made in CHO cells; also called (rh)AXL-ECD His8; human AXL ECD
T2 sequence: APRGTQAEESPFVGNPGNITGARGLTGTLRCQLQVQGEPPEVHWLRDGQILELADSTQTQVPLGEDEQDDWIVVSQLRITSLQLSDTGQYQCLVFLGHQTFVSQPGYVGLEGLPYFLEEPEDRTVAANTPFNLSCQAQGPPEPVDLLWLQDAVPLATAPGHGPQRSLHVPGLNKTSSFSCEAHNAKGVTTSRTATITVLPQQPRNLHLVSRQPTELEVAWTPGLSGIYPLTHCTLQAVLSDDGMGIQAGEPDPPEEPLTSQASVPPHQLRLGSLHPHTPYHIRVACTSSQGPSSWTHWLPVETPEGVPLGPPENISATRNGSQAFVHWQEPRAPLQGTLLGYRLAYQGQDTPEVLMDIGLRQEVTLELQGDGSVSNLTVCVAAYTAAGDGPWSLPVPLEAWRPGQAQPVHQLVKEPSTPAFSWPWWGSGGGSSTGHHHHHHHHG

T3: rhMER-ECD (human, UniProt Q12866 21-505)
T3 construct: extracellular domain
T3 sequence (looked up): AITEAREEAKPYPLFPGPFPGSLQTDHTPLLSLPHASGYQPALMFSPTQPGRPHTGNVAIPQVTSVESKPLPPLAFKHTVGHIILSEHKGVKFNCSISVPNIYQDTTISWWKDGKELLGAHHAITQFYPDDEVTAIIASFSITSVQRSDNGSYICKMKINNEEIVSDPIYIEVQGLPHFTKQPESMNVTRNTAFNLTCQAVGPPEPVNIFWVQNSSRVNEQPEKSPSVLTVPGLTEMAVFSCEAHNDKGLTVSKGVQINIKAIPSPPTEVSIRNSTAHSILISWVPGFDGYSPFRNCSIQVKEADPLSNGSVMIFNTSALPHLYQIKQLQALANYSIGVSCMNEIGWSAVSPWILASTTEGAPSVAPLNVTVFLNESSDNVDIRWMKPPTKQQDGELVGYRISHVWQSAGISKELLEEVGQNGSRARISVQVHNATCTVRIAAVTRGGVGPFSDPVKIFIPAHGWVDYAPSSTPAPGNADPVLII

B1: F107-10G1 (antibody, V domains shown)
VH: EVNLVESGGGVVKPGASLKLSCEASGFTFSNYGMSWVRQTSDKRLEWVASISGGGGRTYYLDNVKGRFIISRENAKNTLYLQMSSLKSEDTALFYCARGARASYFAMDYWGQGSSVTVSS
VL: VIVMTQSHKFMSTSVGDRVSITCKASQDVTTAVAWYQQKPGQSPKLLIYWASTRHTGVPDRFTGSGSGTDYSLTISNVQTEDLAFYYCQQHFTTPLTFGAGTKLELK
notes: also called F107-10G1-3
B2: F111-5E9 (antibody, V domains shown)
VH: QIQLVQSGPELKKPGETVKISCKASGYTFTKYGMNWVKQAPGKGLKWMGWINTYTGEPTYADDFKGRFAFSLETSASTAYLQINNLTTEDMVTYFCAKGGYYSNPIYPMDYWGQGTSVTVSS
VL: DIQMTQTTSSLSASLGDRVTISCRASQDINNYLNWYQQKPDGTVKLLIYYISRLHSGVPSRFSGSGSGTDYSLTISNLELEDVATYFCQQGNTLPFTFGSGTKLEIK
notes: also called F111-5E9-2; mAb 5E9
B3: F111-3C8 (antibody, V domains shown)
VH: QVQLQQPGAELGKPGTSVKLSCKASGYTFTSYWMHWVKRVPGQGLEWIGNINPNSTSADYNEKFKRKATLTVDKSSSTAYMQLSTLTSEDSAVYYCTRPLMGPYWYFDVWGTGTTVTVSS
VL: QIVLTQSPAIMSASPGEKVTISCSASSSVSYMYWYQQKPGSSPKPWIYRTSNLASGVPARFSGSGSGTSYSLTISSMEAEDAATYYCQQYHNYPPTFGGGTKLEIK
notes: also called F111-3C8-2
B4: F107-8D12 (antibody, V domains shown)
VH: QVQLQQPGAELVKPGASVQLSCKASGYTFISFWINWVKQRPGQGLEWMGNIFPGSSSTNYNEKFKSKATLTVDKSSSTAYMQLSSLTSEDSAVYFCARDYYGGSPDYWGQGTTLTVSS
VL: DIVMSQSPSSLAVSAGERVTMSCKSSQSLLNTRTRKNYLAWYQQKPGQSPKLLIYWASTRESGVPDRFTGSGSGTDFTLTISSVQAEDLAVYYCKQSYNLWTFGGGTKLEIK
notes: also called F107-8D12-2; mAb 8D12
B5: F107-7H5 (antibody, V domains shown)
VH: QVQLQQPGAELVKPGASVKLSCKASGYTFTSYWINWVKQRPGQGLEWIGNIYPDSSSTNYNEKFKSKATLTVDKSSTTAYIQFSSLTSEDSAVYYCTRDTYGGSPDYWGQGTTLTVSS
VL: B4 VL with R18K, T32S, N37I, E61Q
notes: also called F107-7H5-2; mAb 7H5

Key:
Assay in all cases: ELISA, antigen coated at 5 µg/ml, mAb 10 µg/ml
rhTyro-3 = biological target: T1, rhTyro-3
Procedure: (§1) To evaluate the cross-reactivity of the mAb to other members of the TAM receptor tyrosine kinase subfamily, binding of the mAb to rhAXL-ECD, rhMER-ECD, rhTyro-3 and BSA (negative control) was measured by ELISA. 96-w half-area plates (Costar) were coated with 25 μl of rhAXL-ECD, rhMER-ECD, rhTyro-3 or BSA at 5 μg/ml in PBS and incubated overnight at 4° C. Microplates were washed 3 times with PBS, blocked with PBS-BSA 1%, and 25 μl of a 10 μg/ml diluted in PBS-BSA 1% were added and incubated at 37° C., 5% CO₂ for 2 hours. Plates were washed 4 times with PBS-TWEEN™ 20 0.05% and incubated for one hour at 37° C., 5% CO₂ with 25 μl of secondary antibody alkaline phosphatase conjugated F(ab)′2 goat anti-mouse IgG (H+L) (Jackson Immunoresearch) diluted 1/5000 in blocking buffer. After 4 washes with PBS-Tween 20 0.05%, 25 μl of a 1 mg/ml pN PP substrate solution was added and further incubated for one hour at 37° C. OD405 nm measurements were done using a microplate reader (Spectramax 340 PC, Molecular Devices).

[1] = biological target: T2, recombinant human AXL extracellular …
Procedure: as §1

rhMER-ECD = biological target: T3, rhMER-ECD
Procedure: as §1

BSA = biological target: T4, BSA (UniProt P02769 25-607)
T4 construct: also called BSA (negative control)
Procedure: as §1

T4 sequence (P02769 25-607 limits assumed): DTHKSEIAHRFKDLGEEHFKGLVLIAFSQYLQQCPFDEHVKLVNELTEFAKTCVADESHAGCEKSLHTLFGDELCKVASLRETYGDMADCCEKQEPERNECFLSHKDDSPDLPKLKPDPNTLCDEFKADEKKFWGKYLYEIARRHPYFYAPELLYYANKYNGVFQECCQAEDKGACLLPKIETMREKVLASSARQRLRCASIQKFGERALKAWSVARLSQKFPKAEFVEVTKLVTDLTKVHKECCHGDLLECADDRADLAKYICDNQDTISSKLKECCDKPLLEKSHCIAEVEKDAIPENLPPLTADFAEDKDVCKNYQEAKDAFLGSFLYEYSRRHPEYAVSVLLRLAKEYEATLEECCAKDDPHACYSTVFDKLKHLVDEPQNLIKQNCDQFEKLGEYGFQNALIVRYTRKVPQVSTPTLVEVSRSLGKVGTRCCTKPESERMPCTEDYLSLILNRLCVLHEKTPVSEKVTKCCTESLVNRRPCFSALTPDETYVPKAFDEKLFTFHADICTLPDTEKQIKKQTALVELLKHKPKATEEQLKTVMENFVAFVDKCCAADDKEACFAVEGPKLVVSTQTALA

Binder	OD405 nm (rhTyro-3) [OD405]	OD405 nm [1] [OD405]	OD405 nm (rhMER-ECD) [OD405]	OD405 nm (BSA) [OD405]
B1	0	1.76	0	0
B2	0	1.36	0	0
B3	0	2.3	0	0
B4	0	2.59	0	0
B5	0	2.4	0	0
